Data taken from patent publication US10888547B2, “Amorphous and a crystalline form of genz 112638 hemitartrate as inhibitor of glucosylceramide synthase” (Genzyme Corporation, priority 2009, dated 2021).

Tests used:
Aqueous solubility = type: physicochemical; conditions: in water
[1] = Hygroscopicity of salts and free base; type: physicochemical
cytochrome P450 enzymes = assay: Hepatic metabolism by cytochrome P450 enzymes; type: in vitro ADME, human; conditions: liver
Excerpt: Cytochrome P450s (“CYPs”) are the principal hepatic xenobiotic metabolizing enzymes. There are eleven xenobiotic-metabolizing cytochrome P450s expressed in a typical human liver (i.e., CYP1A2, CYP2A6, CYP2B6, CYP2C8/9/18/19, CYP2D6, CYP2E1 and CYP3A4/5). […] The level of activity of P450 enzymes differs according to the individual. For example, individuals can be classified as poor, intermediate and extensive/ultra rapid P450 metabolizers. Because lower levels of P450 activity in an individual can give rise to drug/drug interactions (“DDI”), another embodiment of the invention is to determine whether the subject is a poor, intermediate and extensive/ultra rapid P450 metabolizer. […] The dose can raised incrementally and the subject retested once, twice, three, four or as many times as necessary to achieve an adjusted effective dose.

[2] = test system: Gaucher mice (D409V/null); assay: Glucocerebrosidase dosing regimen for debulking GL1 in Gaucher mice; type: in vivo, mouse; conditions: for reduction of GL1 levels in the liver: 7 days after last infusion
Protocol: To investigate the relative merits of combination and monotherapy with either enzyme or substrate reduction therapy, the enzyme regimen that maximally depleted GL1 levels in the visceral organs of Gaucher mice was first determined. Three month-old Gaucher mice (D409V/null) were intravenously administered 2, 4 or 8 doses of 10 mg/kg recombinant human glucocerebrosidase. The mice that were treated with 2 or 4 doses of the enzyme received drug infusions every 3 days while those that were treated with 8 doses received the enzyme every 2 days. The use of a shorter time interval between infusions in animals that received 8 treatments was designed to minimize the potential impact of any immune response to the administered human enzyme. The animals were killed 7 days following the last enzyme infusion and the amount of GL1 remaining in their livers, spleens, and lungs were measured.

[3] = test system: Gaucher mice (D409V/null); assay: Separate and sequential enzyme and substrate reduction therapy in Gaucher mice; type: in vivo, mouse
Excerpt: Procedures involving animals were reviewed and approved by the Institutional Animal Care and Use Committee (IACUC) at Genzyme Corporation following the guidelines issued by the Association for Assessment and Accreditation of Laboratory Animal Care (AAALAC). […] The study had 6 groups of mice with group A being sacrificed after 2 weeks to provide baseline levels of tissue glucosylceramide. Groups B, C, and D all received recombinant human glucocerebrosidase (Genzyme Corp., Cambridge, Mass.) (10 mg/kg) intravenously via a tail-vein (100 μL) every 2 days for a total of 8 injections. Group B was sacrificed at the end of this regimen (at the same time as group A) to provide enzyme-reduced levels of tissue glucosylceramide. Groups D and E were both fed Formula (I) Hemitartrate (Genzyme Corp., Cambridge, Mass.) as a component of the pellet food diet. The drug was formulated at 0.075% (w/w) in standard 5053 mouse chow (TestDiet, Richmond, Ind.) and provided ad libitum. […] Group F received no treatment and was sacrificed along with groups C, D and E 12 weeks after the start of the study. Food consumption and mouse weights were monitored three times per week to determine drug intake and the potential impact of the drug on overall health. Animals were killed by carbon dioxide inhalation and their tissues harvested immediately. Half of each tissue was snap frozen on dry ice and stored at −80° C. until ready for further processing. The other half was processed for histological analysis.
Glucosylceramide levels were quantified by mass spectrometry as described previously (see K. McEachern, et al., J. Gene. Med. 8 (2006) 719-729; T. Doering, J. Biol. Chem. 274 (1999) 11038-11045, the entire teachings of both are incorporated herein by reference). A known mass of tissue was homogenized in 2:1 (v/v) chloroform:methanol and incubated at 37° C. for 15 min. Samples were centrifuged and the supernatants were extracted with 0.2 volumes of water overnight at 4° C. The samples were centrifuged, the aqueous phase was discarded, and the organic phase was dried down to a film under nitrogen. For electrospray ionization mass spectrometry (ESI/MS) analysis, tissue samples were reconstituted to the equivalent of […] original tissue weight in 1 ml chloroform:methanol (2:1, v/v) and vortexed for 5 min. Aliquots (40 μL) of each sample were delivered to Waters total recovery vials and 50 μL of a 10 μg/mL d3-C16-GL-1 internal standard (Matreya, Inc., Pleasant Gap, Pa.) was added. Samples were dried under nitrogen and reconstituted with 200 μL of 1:4 (v/v) DMSO:methanol. ESI/MS analysis of glucosylceramides of different carbon chain lengths was performed on a Waters alliance HPLC (Separation Module 2695) coupled to a Micromass Quattro Micro system equipped with an electrospray ion source. Lipid extract samples (20 μL) were injected onto a C8 column ([…] i.d; Phenomenex, Torrance, Calif.) at 45° C. and eluted with a gradient of 50 to 100% acetonitrile (2 mM ammonium acetate, 0.1% formic acid) at 0.5 mL/min. The first 0.5 min. was held at 50% organic and then quickly switched to 100% for the final 3.5 min. The source temperature was held constant at 150° C. and nitrogen was used as the desolvation gas at a flow rate of 670 L/h. The capillary voltage was maintained at 3.80 KV with a cone voltage of 23 V, while the dwell time for each ion species was 100 ms. Spectra were acquired by the MRM mode to monitor eight dominant isoforms (C16:0, C18:0, C20:0, C22:1, C22:0, C22:1-OH, C24:1, and C24:0). Quantitation of glucosylceramide was based on the sum of these eight isoforms relative to the internal standard, with a calibration curve ranging from 0.1 to 10 μg/mL.
For histological analysis, tissues were fixed in zinc formalin (Electron Microscopy Sciences, Hatfield, Pa.) at room temperature for 24 h, then stored in PBS at 4° C. until ready for further processing. […]

Fabry-Rag mice = assay: Combination ERT/SRT therapy of Fabry-Rag mice; type: in vivo, mouse; conditions: ERT 1 mg/kg α-galactosidase A i.v., SRT 300 mg/kg daily in diet
Protocol: For the combination therapy studies, Fabry-Rag mice were put on study at 3 months old (treatment model). Mice in group A received intravenous injections of recombinant human alpha-galactosidase A (Genzyme Corp.) at a dose of 1 mg/kg every 2 months (i.e. 3, 5, 7 and 9 months old). Group B received the same intravenous enzyme doses plus it received Formula (I) Hemitartrate (Genzyme Corp., Cambridge, Mass.) as a component of the pellet food diet. The drug was formulated at 0.15% (w/w) in standard 5053 mouse chow (TestDiet, Richmond, Ind.) and provided ad libitum. […] Group C received enzyme injections every 4 months (i.e. 3 and 7 months old) and was on the same drug-in-food diet as group B. Group D received only the drug-in-food diet (same as groups B and C). Group E was untreated Fabry-Rag mice and group F were wild-type controls.
Quantitation of GL-3 was by Tandem Mass Spectrometry essentially as for GL-1.
Hot plate Assay was performed as described previously (Ziegler, R J et al. Molec. Ther. 15(3), 492-500 (2007).
Beginning at three-months of age, the mice were subjected to a schedule of behavioral tests (i.e. hot-plate assay) and biochemical tests (i.e., GL-3 level analysis in tissues/blood/urine), as shown in FIG. 10.

Molecule: CCCCCCCC(=O)N[C@H](CN1CCCC1)[C@H](O)c1ccc2c(c1)OCCO2 [Formula (I) Free Base]
- Aqueous solubility (Aqueous solubility): 40 µg/mL
- Hygroscopicity (40° C./75% RH) ([1]; 40° C./75% RH): None
- primary cytochrome P450 isoforms responsible for de-toxifying the compound (cytochrome P450 enzymes): CYP2D6 and CYP3A4

Molecule: CCCCCCCC(=O)N[C@H](CN1CCCC1)[C@H](O)c1ccc2c(c1)OCCO2 [hydrochloric acid (1:1)]
- hygroscopicity of the solid salt ([1]; salt screen, Example 1): hygroscopic

B1: recombinant glucocerebrosidase: recombinant human glucocerebrosidase (Genzyme Corp.), enzyme therapy given to Gaucher mice (protein, UniProt P04062 40-536, looked up)
Lysosomal acid …: ARPCIPKSFGYSSVVCVCNATYCDSFDPPTFPALGTFSRYESTRSGRRMELSMGPIQANHTGTGLLLTLQPEQKFQKVKGFGGAMTDAAALNILALSPPAQNLLLKSYFSEEGIGYNIIRVPMASCDFSIRTYTYADTPDDFQLHNFSLPEEDTKLKIPLIHRALQLAQRPVSLLASPWTSPTWLKTNGAVNGKGSLKGQPGDIYHQTWARYFVKFLDAYAEHKLQFWAVTAENEPSAGLLSGYPFQCLGFTPEHQRDFIARDLGPTLANSTHHNVRLLMLDDQRLLLPHWAKVVLTDPEAAKYVHGIAVHWYLDFLAPAKATLGETHRLFPNTMLFASEACVGSKFWEQSVRLGSWDRGMQYSHSIITNLLYHVVGWTDWNLALNPEGGPNWVRNFVDSPIIVDITKDTFYKQPMFYHLGHFSKFIPEGSQRVGLVASQKNDLDAVALMHPDGSAVVVVLNRSSKDVPLTIKDPAVGFLETISPGYSIHTYLWRRQ
- splenic GL1 levels versus untreated controls ([2]; 2 doses of 10 mg/kg i.v.): did not significantly alter
- reduction of GL1 levels in the liver ([2]; 2 doses of 10 mg/kg i.v. every 3 days): 50%
- reduction of splenic GL1 levels ([2]; 4 or 8 doses of 10 mg/kg i.v.): about 50%
- reduction of GL1 levels in the liver ([2]; 4 or 8 doses of 10 mg/kg i.v.): approximately 75%
- lung GL1, reduction to % of untreated control ([2]; 8 doses of 10 mg/kg i.v. every 2 days): approximately 60%
- liver histopathology, CD68-positive Gaucher cells ([3]; 2 weeks enzyme, then 10 weeks without further treatment): re-emergence of Gaucher cells
- liver histopathology, CD68-positive Gaucher cells ([3]; enzyme over a period of 2 weeks): substantial clearance of the lipid
- stored GL1 levels cleared from the liver ([3]; group B: 8 doses of 10 mg/kg enzyme over 2 weeks): Approximately 80%
- reduction of splenic GL1 levels ([3]; group B: enzyme alone for 2 weeks): approximately 60%
- reduction in substrate (GL1) levels in the lung ([3]; group B: enzyme for 2 weeks): 30%
- splenic GL1 levels versus untreated control (F) ([3]; group C: 2 weeks enzyme, then 10 weeks without further intervention): not significantly different
- liver GL1 levels versus untreated controls (F) ([3]; group C: 2 weeks enzyme, then 10 weeks without further treatment): not significantly different
- lung GL1 levels versus untreated levels (F) ([3]; group C: 2 weeks enzyme, then normal chow for 10 weeks): not significantly different

B2: ERT: enzyme replacement therapy in Fabry-Rag mice: recombinant human alpha-galactosidase A (Genzyme Corp.), 1 mg/kg intravenous (protein, UniProt P06280 32-429, looked up)
Alpha-galactosidase A: LDNGLARTPTMGWLHWERFMCNLDCQEEPDSCISEKLFMEMAELMVSEGWKDAGYEYLCIDDCWMAPQRDSEGRLQADPQRFPHGIRQLANYVHSKGLKLGIYADVGNKTCAGFPGSFGYYDIDAQTFADWGVDLLKFDGCYCDSLENLADGYKHMSLALNRTGRSIVYSCEWPLYMWPFQKPNYTEIRQYCNHWRNFADIDDSWKSIKSILDWTSFNQERIVDVAGPGGWNDPDMLVIGNFGLSWNQQVTQMALWAIMAAPLFMSNDLRHISPQAKALLQDKDVIAINQDPLGKQGYQLRQGDNFEVWERPLSGLAWAVAMINRQEIGGPRSYTIAVASLGKGVACNPACFITQLLPVKRKLGFYEWTSRLRSHINPTGTVLLQLENTMQMSLKDLL
- onset of heat-insensitivity (Fabry-Rag mice): not
- urine GL-3 levels (Fabry-Rag mice): does not
- blood GL-3 levels (Fabry-Rag mice; from 3 months of age): reduces
